{
  "source": "the supplement of paper PMC10724198",
  "note": "± gives the standard deviation of the averaged measurements.",
  "data": [
    {"tested_on": "Saccharomyces cerevisiae", "assay": "protein stability index of tFT-peptide fusion (C-terminal peptide) (PSI (0-1 scale)); higher = more stable (slower turnover)", "conditions": "genetic background: das1 deletion; temperature: 30 C", "protocol": "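MPS profiling in S. cerevisiae of the yeast C-terminome library: the last 12 aa of each annotated ORF are fused to the C-terminus of a sfGFP-mCherry timer, after a GGGS linker. Cells are FACS-sorted into 8 mCherry/sfGFP bins and deep-sequenced. PSI runs from 0 (unstable) to 1 (stable); wild type and das1Δ backgrounds, two technical replicates each.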", "values": [
      {"sequence": "NVGKQLSNEIIY [PRP28 C-terminal 12 aa]", "protein stability index": "0.695 ± 0.045"},
      {"sequence": "NVLGEPFDRYLD [UTP10 C-terminal 12 aa]", "protein stability index": "0.724 ± 0.017"},
      {"sequence": "NVPVSNGTTAAQ [UTP23 C-terminal 12 aa]", "protein stability index": "0.695 ± 0.013"},
      {"sequence": "NYFIITCIGIIM [YPL261C C-terminal 12 aa]", "protein stability index": "0.228 ± 0.029"},
      {"sequence": "NYGQYSSFWSLL [YOR055W C-terminal 12 aa]", "protein stability index": "0.765 ± 0.019"},
      {"sequence": "PADIATDHDITM [TAF8 C-terminal 12 aa]", "protein stability index": "0.717 ± 0.013"},
      {"sequence": "PAKVGIVKGEEN [MGE1 C-terminal 12 aa]", "protein stability index": "0.693 ± 0.021"},
      {"sequence": "PCRYLELRKFGR [TPN1 C-terminal 12 aa]", "protein stability index": "0.7005 ± 0.0046"},
      {"sequence": "PFGNGFKMNFGL [JEM1 C-terminal 12 aa]", "protein stability index": "0.736 ± 0.038"},
      {"sequence": "PFKAIFDAVTKE [ARO1 C-terminal 12 aa]", "protein stability index": "0.73 ± 0.014"},
      {"sequence": "PFYRTSAESIDF [SLM5 C-terminal 12 aa]", "protein stability index": "0.719 ± 0.022"},
      {"sequence": "PGCVIENGTKLY [ADE57 C-terminal 12 aa]", "protein stability index": "0.687 ± 0.012"},
      {"sequence": "PIKIIYNNKCPS [YLL006W-A C-terminal 12 aa]", "protein stability index": "0.709 ± 0.02"},
      {"sequence": "PKGGNYVSRYQR [THO2 C-terminal 12 aa]", "protein stability index": "0.695 ± 0.012"},
      {"sequence": "PKINPLHARKPT [RAD52 C-terminal 12 aa]", "protein stability index": "0.7086 ± 0.0022"},
      {"sequence": "PKSNMYYSWTQL [ORC4 C-terminal 12 aa]", "protein stability index": "0.7112 ± 0.0057"},
      {"sequence": "PLALFYSHLILL [YGR151C C-terminal 12 aa]", "protein stability index": "0.6 ± 0.019"},
      {"sequence": "PLGVQFLDTFRR [DSC2 C-terminal 12 aa]", "protein stability index": "0.718 ± 0.013"},
      {"sequence": "PLHFQLIWLPIF [YML099W-A C-terminal 12 aa]", "protein stability index": "0.5232 ± 0.00075"},
      {"sequence": "PLKFPLPLKPPL [YHL034W-A C-terminal 12 aa]", "protein stability index": "0.715 ± 0.018"},
      {"sequence": "PLMFHCTRWEVD [GEP5 C-terminal 12 aa]", "protein stability index": "0.6911 ± 0.0033"},
      {"sequence": "PLPDLDEDDGEE [DOM34 C-terminal 12 aa]", "protein stability index": "0.686 ± 0.0069"},
      {"sequence": "PLSASWCTSLVT [YHR173C C-terminal 12 aa]", "protein stability index": "0.696 ± 0.0087"},
      {"sequence": "PNFGFLILNSEP [YAL064W C-terminal 12 aa]", "protein stability index": "0.73226 ± 0.00022"},
      {"sequence": "PNILLAFSYTAW [YNL170W C-terminal 12 aa]", "protein stability index": "0.532 ± 0.017"},
      {"sequence": "PPPPSRKCGTPK [LDB17 C-terminal 12 aa]", "protein stability index": "0.713 ± 0.038"},
      {"sequence": "PSMTTTNFSAFM [ECM22 C-terminal 12 aa]", "protein stability index": "0.698 ± 0.008"},
      {"sequence": "PSPTALANLARK [SGF29 C-terminal 12 aa]", "protein stability index": "0.677 ± 0.039"},
      {"sequence": "PSSKAPSPGVNT [TEM1 C-terminal 12 aa]", "protein stability index": "0.677 ± 0.017"},
      {"sequence": "PTPPGLQGPPGL [MSL5 C-terminal 12 aa]", "protein stability index": "0.692 ± 0.018"},
      {"sequence": "PVSESSSPNSWP [YDR230W C-terminal 12 aa]", "protein stability index": "0.768 ± 0.012"},
      {"sequence": "QAADKRIDRNNP [SRD1 C-terminal 12 aa]", "protein stability index": "0.7185 ± 0.0037"},
      {"sequence": "QDELDAMKEMGF [CSM3 C-terminal 12 aa]", "protein stability index": "0.698 ± 0.023"},
      {"sequence": "QDRSCSWLKLLL [YLR171W C-terminal 12 aa]", "protein stability index": "0.685 ± 0.021"},
      {"sequence": "QEISYKFSKTYS [IME1 C-terminal 12 aa]", "protein stability index": "0.676 ± 0.021"},
      {"sequence": "QELISLIDVINQ [RNH203 C-terminal 12 aa]", "protein stability index": "0.7225 ± 0.005"},
      {"sequence": "QFKQILENYRPT [VPS38 C-terminal 12 aa]", "protein stability index": "0.664 ± 0.0088"},
      {"sequence": "QIVGLLKLLASI [PEX15 C-terminal 12 aa]", "protein stability index": "0.68 ± 0.036"},
      {"sequence": "QIVGRYVVDTSK [ADH1 C-terminal 12 aa]", "protein stability index": "0.6827 ± 0.0057"},
      {"sequence": "QKIDNALKMTGR [YDR102C C-terminal 12 aa]", "protein stability index": "0.6896 ± 0.0062"},
      {"sequence": "QKLHAIDGEDEL [GPI17 C-terminal 12 aa]", "protein stability index": "0.688 ± 0.017"},
      {"sequence": "QLQDLLSSENNK [AIM11 C-terminal 12 aa]", "protein stability index": "0.7169 ± 0.0021"},
      {"sequence": "QNYPIVSFSRVI [OSW1 C-terminal 12 aa]", "protein stability index": "0.7236 ± 0.0058"},
      {"sequence": "QPINLDSISDDL [DRE2 C-terminal 12 aa]", "protein stability index": "0.7068 ± 0.0039"},
      {"sequence": "QQYFQEPQQGQY [MCM1 C-terminal 12 aa]", "protein stability index": "0.676 ± 0.0068"},
      {"sequence": "QSATKNQQNQGK [SSQ1 C-terminal 12 aa]", "protein stability index": "0.679 ± 0.011"},
      {"sequence": "QSKNIEIFSQIK [YGR067C C-terminal 12 aa]", "protein stability index": "0.71 ± 0.031"},
      {"sequence": "QSQYSSRFVELD [MCO12 C-terminal 12 aa]", "protein stability index": "0.691 ± 0.015"},
      {"sequence": "QVKLSILKSLGF [UBC7 C-terminal 12 aa]", "protein stability index": "0.702 ± 0.02"},
      {"sequence": "QVTAVVVSYQGV [ATG11 C-terminal 12 aa]", "protein stability index": "0.5882 ± 0.0024"},
      {"sequence": "RAGSHSVGLLPM [UIP5 C-terminal 12 aa]", "protein stability index": "0.6976 ± 0.0019"},
      {"sequence": "RAQPGRKRKHKK [RSC58 C-terminal 12 aa]", "protein stability index": "0.743 ± 0.019"},
      {"sequence": "RDGQKTSLIRLI [YBR259W C-terminal 12 aa]", "protein stability index": "0.711 ± 0.035"},
      {"sequence": "REETEKLNINKD [YAR1 C-terminal 12 aa]", "protein stability index": "0.71 ± 0.014"},
      {"sequence": "REVREIHEMYCK [YKR012C C-terminal 12 aa]", "protein stability index": "0.696 ± 0.034"},
      {"sequence": "RGDDGESYAYLA [CDC53 C-terminal 12 aa]", "protein stability index": "0.69274 ± 0.00042"},
      {"sequence": "RGFSFMPDDLDL [PKC1 C-terminal 12 aa]", "protein stability index": "0.722 ± 0.013"},
      {"sequence": "RHQGQNIYRSGV [MCM5 C-terminal 12 aa]", "protein stability index": "0.682 ± 0.03"},
      {"sequence": "RHSMSEEELEMY [KTR4 C-terminal 12 aa]", "protein stability index": "0.689 ± 0.034"},
      {"sequence": "RKFSSSTNLAKF [TOS8 C-terminal 12 aa]", "protein stability index": "0.779 ± 0.039"},
      {"sequence": "RKGWTGFKKVFK [GYP5 C-terminal 12 aa]", "protein stability index": "0.695 ± 0.025"},
      {"sequence": "RLAKKVARRNAD [RPS24A C-terminal 12 aa]", "protein stability index": "0.693 ± 0.0097"},
      {"sequence": "RLGDVLHVCCPS [YHL049C C-terminal 12 aa]", "protein stability index": "0.717 ± 0.03"},
      {"sequence": "RLKSSVICSGTS [YLR399W-A C-terminal 12 aa]", "protein stability index": "0.68237 ± 6.9e-05"},
      {"sequence": "RMSNGLYTISMS [YPR050C C-terminal 12 aa]", "protein stability index": "0.694 ± 0.017"},
      {"sequence": "RNLLSTYHPMLM [YLR124W C-terminal 12 aa]", "protein stability index": "0.679 ± 0.0082"},
      {"sequence": "RNRLENISTMVI [YIA6 C-terminal 12 aa]", "protein stability index": "0.71 ± 0.012"},
      {"sequence": "RPWYVRQFHFWC [TAT2 C-terminal 12 aa]", "protein stability index": "0.713 ± 0.0097"},
      {"sequence": "RQRRLQAAGRWF [PCP1 C-terminal 12 aa]", "protein stability index": "0.716 ± 0.014"},
      {"sequence": "RRKITLIEDDEE [SAS3 C-terminal 12 aa]", "protein stability index": "0.715 ± 0.011"},
      {"sequence": "RRLKNKQRTRFQ [YNR021W C-terminal 12 aa]", "protein stability index": "0.7264 ± 0.0013"},
      {"sequence": "RRMKLKERKRTT [YBL029W C-terminal 12 aa]", "protein stability index": "0.713 ± 0.022"},
      {"sequence": "RRNRGTPVKYTR [DOT1 C-terminal 12 aa]", "protein stability index": "0.6965 ± 0.0024"},
      {"sequence": "RSHKCYPHDVRF [NAT3 C-terminal 12 aa]", "protein stability index": "0.7614 ± 0.0011"},
      {"sequence": "RSVGKNSEKVST [QDR1 C-terminal 12 aa]", "protein stability index": "0.6986 ± 0.0019"},
      {"sequence": "RTANVVGLDVPT [FMC1 C-terminal 12 aa]", "protein stability index": "0.683 ± 0.017"},
      {"sequence": "RTAYILMYQKRN [UBP3 C-terminal 12 aa]", "protein stability index": "0.782 ± 0.014"},
      {"sequence": "RTLTTGNYHGLA [SYP1 C-terminal 12 aa]", "protein stability index": "0.6833 ± 0.0056"},
      {"sequence": "RVRRRLFAPEST [SLD3 C-terminal 12 aa]", "protein stability index": "0.716 ± 0.018"},
      {"sequence": "RYRLSQRQESKK [MRX4 C-terminal 12 aa]", "protein stability index": "0.698 ± 0.011"},
      {"sequence": "SAIENYRKAYGI [URA10 C-terminal 12 aa]", "protein stability index": "0.664 ± 0.038"},
      {"sequence": "SALILMYKGFGL [UBP6 C-terminal 12 aa]", "protein stability index": "0.664 ± 0.022"}
    ]}
  ]
}
